Reference: patent publication US9187525B2, “Methods of treating ophthalmic diseases using NPR-B agonists” (Shire Orphan Therapies GmbH, dated 2015)
Square brackets hold non-standard residues; d marks the D form. Ends that are not written are not given here. * marks the point of attachment. Hyp = O=C(O)[C@@H]1C[C@@H](O)CN1; tBuAla = CC(C)(C)C[C@H](N)C(=O)O; Cha = N[C@@H](CC1CCCCC1)C(=O)O; NMeL = CN[C@@H](CC(C)C)C(=O)O; Nle = CCCC[C@H](N)C(=O)O; Octanoyl = CCCCCCCC(=O)*; Nva = CCC[C@H](N)C(=O)O; Aib = CC(C)(N)C(=O)O; Occ = octanoic acid

Biological target: T1, natriuretic peptide receptor-B (human)
T1 chain: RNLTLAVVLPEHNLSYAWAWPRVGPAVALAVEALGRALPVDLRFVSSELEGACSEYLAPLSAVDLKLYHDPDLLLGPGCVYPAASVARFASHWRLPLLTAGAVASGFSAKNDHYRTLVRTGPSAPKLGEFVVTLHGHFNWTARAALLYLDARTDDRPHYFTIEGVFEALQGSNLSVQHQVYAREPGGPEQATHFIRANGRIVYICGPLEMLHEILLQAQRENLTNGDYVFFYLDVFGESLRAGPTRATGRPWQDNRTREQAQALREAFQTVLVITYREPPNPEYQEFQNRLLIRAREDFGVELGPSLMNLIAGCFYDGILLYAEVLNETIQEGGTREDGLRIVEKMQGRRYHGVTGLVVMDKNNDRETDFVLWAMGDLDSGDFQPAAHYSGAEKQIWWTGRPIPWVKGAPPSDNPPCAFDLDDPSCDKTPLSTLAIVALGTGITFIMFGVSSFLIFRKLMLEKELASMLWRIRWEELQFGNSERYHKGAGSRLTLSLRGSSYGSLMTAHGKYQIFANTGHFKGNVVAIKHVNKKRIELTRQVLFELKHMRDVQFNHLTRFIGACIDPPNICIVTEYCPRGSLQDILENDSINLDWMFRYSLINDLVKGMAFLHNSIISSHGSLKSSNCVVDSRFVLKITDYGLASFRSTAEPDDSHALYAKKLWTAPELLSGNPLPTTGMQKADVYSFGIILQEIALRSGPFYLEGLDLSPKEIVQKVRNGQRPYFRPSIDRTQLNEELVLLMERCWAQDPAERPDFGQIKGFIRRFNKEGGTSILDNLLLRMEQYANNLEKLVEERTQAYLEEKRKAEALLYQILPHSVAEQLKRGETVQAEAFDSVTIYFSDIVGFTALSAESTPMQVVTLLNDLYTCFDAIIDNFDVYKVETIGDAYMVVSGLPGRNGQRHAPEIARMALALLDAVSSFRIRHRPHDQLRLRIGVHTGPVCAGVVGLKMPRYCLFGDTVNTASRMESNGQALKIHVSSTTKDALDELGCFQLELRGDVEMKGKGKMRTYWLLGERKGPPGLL
Test: cell-based or functional assay

B1: JAL-0940 (peptide)
peptide: [Occ]AFG[Cha]PLDRI-NH2
modifications: not fully specified (residue 2); printed as Occ-ala-Phe-Gly-Cha-Pro-Leu-Asp-Arg-Ile-NH2
EC50 group, cGMP in GTM-3 cells: ≤ 15 µM

B2: JAL-0924 (peptide)
peptide: [Occ]AFGLPLNRI-NH2
modifications: not fully specified (residue 2); printed as Occ-ala-Phe-Gly-Leu-Pro-Leu-Asn-Arg-Ile-NH2
EC50 group, cGMP in GTM-3 cells: ≤ 15 µM

B3: JAL-0943 (peptide)
peptide: [Occ]AF[Aib]LPLDRI-NH2
modifications: not fully specified (residue 2); printed as Occ-ala-Phe-Aib-Leu-Pro-Leu-Asp-Arg-Ile-NH2
EC50 group, cGMP in GTM-3 cells: ≤ 15 µM

B4: JAL-0906 (peptide)
peptide: [Occ]AXGLPLDRI-NH2
modifications: not fully specified (residues 2, 3); printed as Occ-ala-Nmf-Gly-Leu-Pro-Leu-Asp-Arg-Ile-NH2
EC50 group, cGMP in GTM-3 cells: ≤ 15 µM

B5: JAL-0896 (peptide)
peptide: Octanoyl-AFGLP[tBuAla]DRI-NH2
modifications: not fully specified (some residues); printed as Occ-ala-Phe-Gly-Leu-Pro-Npg-Asp-Arg-Ile-NH2
EC50 group, cGMP in GTM-3 cells: ≤ 15 µM

B6: JAL-0895 (peptide)
peptide: Octanoyl-AFGLP[NMeL]DRI-NH2
modifications: not fully specified (some residues); printed as Occ-ala-Phe-Gly-Leu-Pro-Nml-Asp-Arg-Ile-NH2
EC50 group, cGMP in GTM-3 cells: ≤ 5 µM

B7: JAL-0926 (peptide)
peptide: [Occ]AFGLPL[Nva]RI-NH2
modifications: not fully specified (residue 2); printed as Occ-ala-Phe-Gly-Leu-Pro-Leu-Nva-Arg-Ile-NH2
EC50 group, cGMP in GTM-3 cells: ≤ 15 µM

B8: JAL-0903 (peptide)
peptide: Octanoyl-AFG[tBuAla]PLDRI-NH2
modifications: not fully specified (some residues); printed as Occ-ala-Phe-Gly-Npg-Pro-Leu-Asp-Arg-Ile-NH2
EC50 group, cGMP in GTM-3 cells: ≤ 15 µM

B9: JAL-0927 (peptide)
peptide: [Occ]AFGLPLVRI-NH2
modifications: not fully specified (residue 2); printed as Occ-ala-Phe-Gly-Leu-Pro-Leu-Val-Arg-Ile-NH2
EC50 group, cGMP in GTM-3 cells: ≤ 15 µM

B10: JAL-0942 (peptide)
peptide: [Occ]AFG[Nle]PLDRI-NH2
modifications: not fully specified (residue 2); printed as Occ-ala-Phe-Gly-Nle-Pro-Leu-Asp-Arg-Ile-NH2
EC50 group, cGMP in GTM-3 cells: ≤ 15 µM

B11: JAL-0894 (peptide)
peptide: Octanoyl-AFGLPIDRI-NH2
modifications: not fully specified (some residues); printed as Occ-ala-Phe-Gly-Leu-Pro-Ile-Asp-Arg-Ile-NH2
EC50 group, cGMP in GTM-3 cells: ≤ 15 µM

B12: JAL-0929 (peptide)
peptide: [Occ]AFGLPLTRI-NH2
modifications: not fully specified (residue 2); printed as Occ-ala-Phe-Gly-Leu-Pro-Leu-Thr-Arg-Ile-NH2
EC50 group, cGMP in GTM-3 cells: ≤ 15 µM

B13: JAL-0921 (peptide)
peptide: [Occ]AFGLPLD[Nmr]I-NH2
modifications: not fully specified (residue 2); printed as Occ-ala-Phe-Gly-Leu-Pro-Leu-Asp-Nmr-Ile-NH2
EC50 group, cGMP in GTM-3 cells: ≤ 15 µM

B14: JAL-0898 (peptide)
peptide: Octanoyl-AFGL[Hyp]LDRI-NH2
modifications: not fully specified (some residues); printed as Occ-ala-Phe-Gly-Leu-Hyp-Leu-Asp-Arg-Ile-NH2
EC50 group, cGMP in GTM-3 cells: ≤ 5 µM
